From patent publication CN101098892A (HOFFMANN LA ROCHE, dated 2008) come the findings set out here.

Assay [1] has as its target 猕猴IL-13Rα1 (转染的Ba/F3细胞) (猕猴 (Cyno)). The assay is described as follows: FACS, transfected against parental Ba/F3 cells, secondary antibody alone. On the technique in general: Flow cytometry measures light scatter and fluorescence of single cells or particles in a stream.
Assay [2] shares this target. The assay is described as follows: FACS on Ba/F3 cells transfected with cynomolgus IL-13Rα1, secondary antibody alone.
The target of assay [3] is IL-13Rα1 (人B细胞、单核细胞、TF-1细胞、HFL-1细胞、支气管平滑肌细胞上) (human) (UniProt P78552). The assay is described as follows: cell-based or functional assay.
Assay [4] deals with 猕猴IL-13Rα1 (转染的Ba/F3细胞) (猕猴 (Cyno)). Briefly: FACS, transfected against parental Ba/F3 cells.
The target of assay [5] is 人IL-13Rα1 (表达人IL-13Rα1和人IL-4Rα的CHO细胞) (human) (UniProt P78552). Briefly: displacement of 125I-IL-13 from CHO cells expressing human IL-13Rα1 and IL-4Rα. (Displacement assays read how much labelled ligand stays bound in the presence of the test substance.)
Assay [6] concerns the target 猕猴IL-13Rα1 (转染的Ba/F3细胞) (猕猴 (Cyno)). The assay is described as follows: FACS on Ba/F3 cells transfected with cynomolgus IL-13Rα1.
The target is the same in assay [7]. The assay is described as follows: FACS, transfected against parental Ba/F3 cells, negative control.
The target is the same in assay [8]. The assay is described as follows: FACS on Ba/F3 cells transfected with cynomolgus IL-13Rα1, negative control.
Assay [9] shares this target. The assay is described as follows: FACS, transfected against parental Ba/F3 cells. The source holds these as a separate data set.
The target of assay [10] is T1, IL-13Rα1 (人B细胞、单核细胞、TF-1细胞、HFL-1细胞、支气管平滑肌细胞上) (human, UniProt P78552 22-427).
T1 sequence (looked up): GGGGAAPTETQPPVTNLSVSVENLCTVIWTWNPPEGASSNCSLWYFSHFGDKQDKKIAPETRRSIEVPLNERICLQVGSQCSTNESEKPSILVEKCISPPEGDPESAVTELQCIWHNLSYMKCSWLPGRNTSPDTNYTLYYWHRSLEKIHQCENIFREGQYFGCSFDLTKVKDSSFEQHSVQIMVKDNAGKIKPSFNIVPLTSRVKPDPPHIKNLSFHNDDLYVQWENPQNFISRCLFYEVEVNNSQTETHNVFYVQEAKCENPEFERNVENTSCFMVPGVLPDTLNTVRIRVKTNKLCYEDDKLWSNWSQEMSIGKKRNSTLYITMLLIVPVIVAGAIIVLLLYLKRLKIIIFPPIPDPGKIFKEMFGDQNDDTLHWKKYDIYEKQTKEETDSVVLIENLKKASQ
Briefly: cell-based or functional assay.

Assay [11] addresses T2, 从hIL-13Rα1:hFc嵌合蛋白切割的hIL-13Rα1的细胞外结构域 (human, UniProt P78552 22-343).
T2 construct: extracellular domain; also called 切割的hIL-13Rα1分子
T2 sequence (looked up): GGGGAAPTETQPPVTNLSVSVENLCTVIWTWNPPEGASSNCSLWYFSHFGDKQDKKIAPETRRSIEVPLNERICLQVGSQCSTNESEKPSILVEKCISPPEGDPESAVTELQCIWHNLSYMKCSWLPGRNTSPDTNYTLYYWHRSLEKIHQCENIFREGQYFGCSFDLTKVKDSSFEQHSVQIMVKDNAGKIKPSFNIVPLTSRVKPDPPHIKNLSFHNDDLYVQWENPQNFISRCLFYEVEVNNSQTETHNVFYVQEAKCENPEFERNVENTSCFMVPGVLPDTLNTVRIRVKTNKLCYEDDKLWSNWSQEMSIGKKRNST
Briefly: SPR Biacore 3000, C1 chip, antibody captured by anti-hFcγ, cleaved hIL-13Rα1 ECD as analyte, 1:1 Langmuir. For orientation: In SPR one partner is held on a chip, and binding of the other changes the refractive index at the surface.

The target in assay [12] is 猕猴IL-13Rα1 (转染的Ba/F3细胞) (猕猴 (Cyno)). Briefly: FACS on Ba/F3 cells transfected with cynomolgus IL-13Rα1, 10 μg/ml antibody.
Assay [13] shares this target. The description is as above. The source holds these as a separate data set.

As for 仅抗人IgG-FITC (antibody), the 在Cyno IL-13Rα1存在下MFI的增加倍数 in assay [1] is 2.2. Further, the MFIBa/F3 Cyno IL-13Rα1 in assay [2] stood at 5.5 MFI.

“多克隆山羊抗人IL-13Rα1抗体AF152(R&D Systems) (antibody)”: in assay [3], the B淋巴细胞上CD23上调的抑制 IC50 was 13.6 nM, the IL-4诱导的增殖的IC50 is 74.4 nM, the IL-13诱导的Stat-6磷酸化的抑制 IC50 was found to be 18.6 nM and the IL-13诱导的TF-1细胞增殖的抑制 IC50 worked out at 13.5 nM. In assay [3], this molecule gave a 人单核细胞上IL-13诱导的CD23上调的抑制 IC50 of 62.9 nM and a 抑制嗜曙红粒细胞趋化因子释放 平均IC50 of 11.5 nM. The 在Cyno IL-13Rα1存在下MFI的增加倍数 in [4] was 18. In assay [5], the IC50 (commonly the concentration needed to halve the response being measured) was 84.8 nM. For the same molecule, in assay [6], the MFIBa/F3 Cyno IL-13Rα1 was determined as 21.2 MFI.

In the case of 正常人IgG1(Nordic) (antibody), the 在Cyno IL-13Rα1存在下MFI的增加倍数 in assay [7] was 6.7. The molecule also gave an MFIBa/F3 Cyno IL-13Rα1 in [8] of 10.2 MFI.

Take 正常山羊IgG (antibody): in assay [7], the 在Cyno IL-13Rα1存在下MFI的增加倍数 is 2.4. This molecule also returned an MFIBa/F3 Cyno IL-13Rα1 in [8] of 5.7 MFI.

B1: HuMab LC5002-002 (antibody, human IgG1, V domains shown)
VH: EVQLLESGGGLVQPGGSLRLSCAASGFTFNIYAMNWVRQAPGKGLEWVVISGRGITTYYADSVKGRFTISRDNSKNTLYLQMNSLRADDTAVYYCAKGSSSWTDFDYWGQGTLVTVSS
VL: DIQMTQSPSSLSASVGDRVTITCRASQGISRWVAWYQQKPEKAPKSLIYAASSLQSGVPSRFSGSGSGTDFTLTISSLQPEDFATYYCQQYNSYPWTFGQGTKVEIK
notes: Human IgG1 kappa antibody from a HuMab mouse hybridoma; also called hu-MAB<h-IL-13Ralpha>LC.5002-002 (DSM ACC2709)
As for B1, the 在Cyno IL-13Rα1存在下MFI的增加倍数 in [9] is 79.8. For the same molecule, in [10], the “IL-13诱导的TF-1细胞增殖的抑制 IC50” value was found to be 9.21 nM. In assay [11], the affinity, expressed as Kd, was 0.62 nM; the koff (as a rule, the first-order rate constant of dissociation) worked out at 0.00065 s⁻¹; the on-rate constant (kon) – broadly, a measure of how fast the partners come together – amounted to 1.1e+06 M⁻¹ s⁻¹. Further, the MFIBa/F3 Cyno IL-13Rα1 in assay [12] was found to be 83.7 MFI.

B2: HuMab LC5002-003 (antibody, V domains shown)
VH: EVQLLESGGDLIQPGGSLRLSCAASGFTFNIYAMNWVRQAPGKGLEWVSVISGRGITTYYADSVKGRFTISRDNSKNTLYLQMDSLRAEDTAVYYCAKGSSYWTDFDYWGQGTLVTVSS
VL: DIQMTQSPSSLSASVGDRVTITCRASQGISSWLAWYQQKPEKAPKSLIYAASSLQSGVPSRFSGSGSGTDFTLTISSLQPEDFATYYCQQYNSYPWTFGQGTKVEIK
For the molecule B2, in [4], the 在Cyno IL-13Rα1存在下MFI的增加倍数 was 79. In assay [10], the “IL-13诱导的Stat-6磷酸化的抑制 IC50” value turned out to be 5.98 nM and the “IL-13诱导的TF-1细胞增殖的抑制 IC50” value worked out at 3.07 nM. In addition, the MFIBa/F3 Cyno IL-13Rα1 in assay [13] turned out to be 82.4 MFI.
